From US20070089183A1, “Size and/or growth engineering by modulation of the interaction between calmodulin, and brassinosteroid biosynthetic enzymes and orthologs therof” (Washington State University, priority 2005, published 2007)

B1: Δ518-539: Arabidopsis thaliana DWF1 protein Δ518-539 mutant, a total deletion of the CaMBD (protein, listed as Arabidopsis thaliana)
chain: MSDLQTPLVRPKRKKTWVDYFVKFRWIIVIFIVLPFSATFYFLIYLGDMWSESKSFEKRQKEHDENVKKVIKRLKGRDASKDGLVCTARKPWIAVGMRNVDYKRARHFEVDLGEFRNILEINKEKMTARVEPLVNMGQISRATVPMNLSLAVVAELDDLTVGGLINGYGIEGSSHIYGLFADTVEAYEIVLAGGELVRATRDNEYSDLYYAIPWSQGTLGLLVAAEIRLIKVKEYMRLTYIPVKGDLQALAQGYIDSFAPKDGDKSKIPDFVEGMVYNPTEGVMMVGTYASKEEAKKKGNKINNVGWWFKPWFYQHAQTALKKGQFVEYIPTREYYHRHTRCLYWEGKLILPFGDQFWFRYLLGWLMPPKVSLLKATQGEAIRNYYHDMHVIQDMLVPLYKVGDALEWVHREMEVYPIWLCPHKLFKQPIKGQIYPEPGFEYENRQGDTEDAQMYTDVGVYYAPGCVLRGEEFDGSEAVRRMEKWLIENHGFQPQYAVSELDEKSFWRMFNGELYEEKTEKEVREAEQAHLETAYAEAD
B2: DWF1: wild-type Arabidopsis DWARF1 (At3g19820), expressed from 35S::DWF1 in cW plants (protein, listed as Arabidopsis thaliana)
chain: MSDLQTPLVRPKRKKTWVDYFVKFRWIIVIFIVLPFSATFYFLIYLGDMWSESKSFEKRQKEHDENVKKVIKRLKGRDASKDGLVCTARKPWIAVGMRNVDYKRARHFEVDLGEFRNILEINKEKMTARVEPLVNMGQISRATVPMNLSLAVVAELDDLTVGGLINGYGIEGSSHIYGLFADTVEAYEIVLAGGELVRATRDNEYSDLYYAIPWSQGTLGLLVAAEIRLIKVKEYMRLTYIPVKGDLQALAQGYIDSFAPKDGDKSKIPDFVEGMVYNPTEGVMMVGTYASKEEAKKKGNKINNVGWWFKPWFYQHAQTALKKGQFVEYIPTREYYHRHTRCLYWEGKLILPFGDQFWFRYLLGWLMPPKVSLLKATQGEAIRNYYHDMHVIQDMLVPLYKVGDALEWVHREMEVYPIWLCPHKLFKQPIKGQIYPEPGFEYENRQGDTEDAQMYTDVGVYYAPGCVLRGEEFDGSEAVRRMEKWLIENHGFQPQYAVSELDEKSFWRMFNGELYEECRKKYRAIGTFMSVYYKSKKGRKTEKEVREAEQAHLETAYAEAD
B3: V531D: Arabidopsis thaliana DWF1 protein V531D mutant, disturbing the hydrophobic surface of the CaMBD (protein, listed as Arabidopsis thaliana)
chain: MSDLQTPLVRPKRKKTWVDYFVKFRWIIVIFIVLPFSATFYFLIYLGDMWSESKSFEKRQKEHDENVKKVIKRLKGRDASKDGLVCTARKPWIAVGMRNVDYKRARHFEVDLGEFRNILEINKEKMTARVEPLVNMGQISRATVPMNLSLAVVAELDDLTVGGLINGYGIEGSSHIYGLFADTVEAYEIVLAGGELVRATRDNEYSDLYYAIPWSQGTLGLLVAAEIRLIKVKEYMRLTYIPVKGDLQALAQGYIDSFAPKDGDKSKIPDFVEGMVYNPTEGVMMVGTYASKEEAKKKGNKINNVGWWFKPWFYQHAQTALKKGQFVEYIPTREYYHRHTRCLYWEGKLILPFGDQFWFRYLLGWLMPPKVSLLKATQGEAIRNYYHDMHVIQDMLVPLYKVGDALEWVHREMEVYPIWLCPHKLFKQPIKGQIYPEPGFEYENRQGDTEDAQMYTDVGVYYAPGCVLRGEEFDGSEAVRRMEKWLIENHGFQPQYAVSELDEKSFWRMFNGELYEECRKKYRAIGTFMSDYYKSKKGRKTEKEVREAEQAHLETAYAEAD
B4: KYR52-5231DGD: Arabidopsis thaliana DWF1 protein K521D, Y522G, R523D triple mutant (protein, listed as Arabidopsis thaliana)
chain: MSDLQTPLVRPKRKKTWVDYFVKFRWIIVIFIVLPFSATFYFLIYLGDMWSESKSFEKRQKEHDENVKKVIKRLKGRDASKDGLVCTARKPWIAVGMRNVDYKRARHFEVDLGEFRNILEINKEKMTARVEPLVNMGQISRATVPMNLSLAVVAELDDLTVGGLINGYGIEGSSHIYGLFADTVEAYEIVLAGGELVRATRDNEYSDLYYAIPWSQGTLGLLVAAEIRLIKVKEYMRLTYIPVKGDLQALAQGYIDSFAPKDGDKSKIPDFVEGMVYNPTEGVMMVGTYASKEEAKKKGNKINNVGWWFKPWFYQHAQTALKKGQFVEYIPTREYYHRHTRCLYWEGKLILPFGDQFWFRYLLGWLMPPKVSLLKATQGEAIRNYYHDMHVIQDMLVPLYKVGDALEWVHREMEVYPIWLCPHKLFKQPIKGQIYPEPGFEYENRQGDTEDAQMYTDVGVYYAPGCVLRGEEFDGSEAVRRMEKWLIENHGFQPQYAVSELDEKSFWRMFNGELYEECRKDGDAIGTFMSVYYKSKKGRKTEKEVREAEQAHLETAYAEAD

How the values were obtained:
dwf1 null mutant = assay: complementation of dwf1 null mutant, plant phenotype; format: in vivo, Arabidopsis; conditions: for phenotype rescue of dwf1 mutant: 35S promoter-driven construct in homozygous dwf1 knockout
Description: To circumvent the infertility problem associated with homozygous dwf1 mutants^6,7, a heterozygous dwf1 line (SALK—006932, ref. 23) was chosen for transformation. A T-DNA insert is shown in FIG. 6, panel A, and detailed characterizations confirmed that it is a heterozygous dwf1 null mutation line (FIG. 2a, b).
Specifically, heterozygous SALK—006932 plants were transformed with a 35S::DWF1 construct (FIG. 6, panel B). […] Using polymerase chain reaction (PCR) analysis, one dwarf and seven normal plants were identified that carried at least one copy of the 35S::DWF1 complementary construct and were homozygous knockout at the endogenous DWF1 loci. The dwarfism in the dwarf plant was confirmed to be caused by a failure in expression of the transgene (FIG. 2c, d). The overexpressed (numbers 1, 2, 3, 8) and equally expressed (numbers 5, 7) lines grew like the wild-type, confirming a previous report^6. […] At the adult stage, 7 out of the 8 complemented lines reached similar levels of height and fertility as that of wild-type plants (FIG. 3c).
Mutants. Three mutants were produced to disrupt the conserved secondary structure of the CaMBD of DWF1 (FIG. 6, Panel B): V531D (M1), aimed at disturbing the hydrophobic surface; KYR521-523DGD (M2, K521, Y522 and R523 are changed to D521, G522 and D523), aimed at changing the net surface charges; and Δ518-539 (M3), a total deletion of the CaMBD. […] A similar strategy was used to deliver the mutant dwf1 complimentary constructs (FIG. 6, Panel B) into the heterozygous dwf1 plants. Visual checks identified 18, 11 and 19 dwarf plants in the T1 population carrying 35S::DWF1(V531D), 35S::DWF1(KYR521-523DGD) and 35S::DWF1(Δ518-539) complimentary constructs, respectively. These plants were confirmed to carry at least one copy of the transgene and the homozygous knockout at the endogenous DWF1 loci.
To ensure a reliable comparison of the complementary effects of normal DWF1 and the three mutants, T2 plants with similar expression levels were compared (FIG. 3b-d). […] Seeds were produced in most of the slightly shorter siliques of cM1 plants (FIG. 3b, c). […] The dwarf phenotypes of cM1, cM2, cM3 and the dwf1 mutant were rescued by exogenous application of brassinolide (data not shown).

[1] = system: DWF1 function (sitosterol/isofucosterol levels); assay: GC-MS sterol analysis of complemented plants; format: in vivo, Arabidopsis; conditions: endogenous sitosterol/isofucosterol by GC-MS, six- to seven-week-old plants
Experimental: DWF1 catalyses the conversion of isofucosterol to sitosterol and 24-methylenecholesterol to campesterol^6,7. The endogenous levels of sitosterol/isofiicosterol or campesterol/24-methylenecholesterol in wild-type, dwarf and complemented plants were analysed using gas chromatography-mass spectrometry (GC-MS) to monitor the function of the complementing DWF1, DWF1(V531D), DWF1(KYR521-523DGD) and DWF1(Δ518-539) carried in cW, cM1, cM2 and cM3 plants, respectively.
Sterol analysis. Six- to seven-week-old greenhouse-grown plants were harvested and ground into a fine powder in liquid nitrogen. Aliquots of 100 mg ground material were sponified in 1 N NaOH, 70% ethanol at 70° C. for 2 h. The sterols were extracted three times with 500 μl hexane, and the combined extracts were dried and dissolved in 100 μl of methylene chloride. GC-MS analyses were conducted on an Agilent 6890 GC system with 5973N mass selective detector. A 1 μl aliquot of methylene chloride extract containing the underivatized sterols was loaded by cool on column injection on a Zebron (Phenomenex) ZB-5 column, 30 m×0.25 mm internal diameter with 0.25 μm film thickness. Chromatography was accomplished using He as the carrier gas at a flow rate of 0.7 ml min^−1. The column oven temperature was programmed to run from 40° C. to 300° C. increased at 20° C. min^−1, with a hold for 10 min at 300° C. Identification and quantification of sterols was accomplished by comparison to authentic standards based on the retention time, peak area and mass fragmentation pattern.

35S-CaM = assay: 35S-CaM-binding assay; conditions: purified recombinant protein covering amino acid 517 to the stop codon, 2 μg per lane
Experimental: Total proteins from E. coli expressing pScreen-1b (lane 1) or expressing pScreen-1b-517-561 (lane 2) were stained (left panel) or bound to ^35S-CaM in the presence of Ca^2+ (middle panel) or EGTA (right panel), a Ca^2+ chelator. […] Total proteins from plants expressing the Flag-tagged DWF1 (DWF1-Flag) or wild-type plants (WT) were incubated with antibodies against full-length human CaM1 (anti-CaM1), AtBET10 (anti-AtBET10) or non-immune serum (Non-im.); immunocomplexes were separated on SDS-PAGE and detected with anti-Flag M2 monoclonal antibody. […] Total proteins from E. coli expressing pET32b (lane 1), pET32b-1-349 (lane 2), pET32b-348-518 (lane 3), pScreen-1b (lane 4) or pScreen-1b-517-561 (lane 5) were stained (left) or were bound to ^35S-CaM (right). […] CaM and the peptide-CaM complex is indicated.
To confirm further the CaM-binding ability of DWF1, the positive clone from the library screening was expressed in Escherichia coli and tested for ^35S-CaM binding^15 in the presence of Ca^2+, EGTA, a Ca^2+ chelator, or Mg^2+. […] C-terminal Flag-tagged DWF1 overexpression lines of Arabidopsis were produced to study the DWF1-CAM interaction in vivo. Because of the dynamic nature of the interaction between DWF1 and Ca^2+/CaM, co-immunoprecipitation using a prior in vivo crosslinking strategy^16 was adapted to verify their interaction under physiological conditions.
The CaMBD is typically comprised of a stretch of 12-30 contiguous amino acids that contain a positive net charge and have a propensity to form an amphiphilic α-helix^4. […] A peptide corresponding to 518-539 was synthesized, and its CaM-binding ability was confirmed using PCM6 (ref. 17) in a gel mobility shift assay^15 (FIG. 1e).
Mutants. Three mutants were produced to disrupt the conserved secondary structure of the CaMBD of DWF1 (FIG. 6, Panel B): V531D (M1), aimed at disturbing the hydrophobic surface; KYR521-523DGD (M2, K521, Y522 and R523 are changed to D521, G522 and D523), aimed at changing the net surface charges; and Δ518-539 (M3), a total deletion of the CaMBD. […]

Molecule | phenotype rescue of dwf1 mutant (dwf1 null mutant) | recovery of DWF1 function [1] | CaM-binding ability (35S-CaM) | height of flowering stems relative to the wild-type plant (dwf1 null mutant; T2 plants with similar expression levels)
B1 | grew like the uncomplemented dwf1 mutants | almost non-existent | undetectable | 
B2 | completely rescue | recovered to a level comparable to that in wild-type plants |  | 
B3 | some degree of phenotype rescue | restored to some extent | markedly decreased | up to 40%
B4 | very slight phenotypic rescue | almost non-existent | undetectable | 
